T1: His6-WDR91(392-747) (UniProt A4D1P6 392-747)
T1 sequence: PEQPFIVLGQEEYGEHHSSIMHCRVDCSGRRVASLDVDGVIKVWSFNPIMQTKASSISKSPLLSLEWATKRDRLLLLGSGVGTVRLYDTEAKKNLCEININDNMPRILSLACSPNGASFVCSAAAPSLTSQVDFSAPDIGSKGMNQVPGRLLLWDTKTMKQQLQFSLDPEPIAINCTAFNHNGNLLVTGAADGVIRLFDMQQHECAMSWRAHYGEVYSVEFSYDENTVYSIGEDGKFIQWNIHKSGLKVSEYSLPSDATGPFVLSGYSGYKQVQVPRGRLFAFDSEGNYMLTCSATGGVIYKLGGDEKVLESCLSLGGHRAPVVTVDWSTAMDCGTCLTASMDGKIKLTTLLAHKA

B1: GST-SNX27(PX) (domain or fragment)
chain: EKQAVPISVPRYKHVEQNGEKFVVYNVYMAGRQLCSKRYREFAILHQNLKREFANFTFPRLPGKWPFSLSEQQLDARRRGLEEYLEKVCSIRVIGESDIMQEFLSESDENYNGVS
B2: GST-SNX2 (natural protein)
chain: MAAEREPPPLGDGKPTDFEDLEDGEDLFTSTVSTLESSPSSPEPASLPAEDISANSNGPKPTEVVLDDDREDLFAEATEEVSLDSPEREPILSSEPSPAVTPVTPTTLIAPRIESKSMSAPVIFDRSREEIEEEANGDIFDIEIGVSDPEKVGDGMNAYMAYRVTTKTSLSMFSKSEFSVKRRFSDFLGLHSKLASKYLHVGYIVPPAPEKSIVGMTKVKVGKEDSSSTEFVEKRRAALERYLQRTVKHPTLLQDPDLRQFLESSELPRAVNTQALSGAGILRMVNKAADAVNKMTIKMNESDAWFEEKQQQFENLDQQLRKLHVSVEALVCHRKELSANTAAFAKSAAMLGNSEDHTALSRALSQLAEVEEKIDQLHQEQAFADFYMFSELLSDYIRLIAAVKGVFDHRMKCWQKWEDAQITLLKKREAEAKMMVANKPDKIQQAKNEIREWEAKVQQGERDFEQISKTIRKEVGRFEKERVKDFKTVIIKYLESLVQTQQQLIKYWEAFLPEAKAIA
B3: WDR91-His6 (natural protein)
chain: MAEAVERTDELVREYLLFRGFTHTLRQLDAEIKADKEKGFRVDKIVDQLQQLMQVYDLAALRDYWSYLERRLFSRLEDIYRPTIHKLKTSLFRFYLVYTIQTNRNDKAQEFFAKQATELQNQAEWKDWFVLPFLPSPDTNPTFATYFSRQWADTFIVSLHNFLSVLFQCMPVPVILNFDAECQRTNQVQEENEVLRQKLFALQAEIHRLKKEEQQPEEEEALVQHKLPPYVSNMDRLGDSELAMVCSQRNASLSQSPRVGFLSSLLPQSKKSPSRLSPAQGPPQPQSSAKKESFGGQGTKGKDPTSGAKDGKSLLSGLATGESGWSQHRQRRLQDHGKERKELFSTTTSQCAEKKPEASGPEAEPCPELHTEPVEPLTRASSAGPEGGGVRPEQPFIVLGQEEYGEHHSSIMHCRVDCSGRRVASLDVDGVIKVWSFNPIMQTKASSISKSPLLSLEWATKRDRLLLLGSGVGTVRLYDTEAKKNLCEININDNMPRILSLACSPNGASFVCSAAAPSLTSQVDFSAPDIGSKGMNQVPGRLLLWDTKTMKQQLQFSLDPEPIAINCTAFNHNGNLLVTGAADGVIRLFDMQQHECAMSWRAHYGEVYSVEFSYDENTVYSIGEDGKFIQWNIHKSGLKVSEYSLPSDATGPFVLSGYSGYKQVQVPRGRLFAFDSEGNYMLTCSATGGVIYKLGGDEKVLESCLSLGGHRAPVVTVDWSTAMDCGTCLTASMDGKIKLTTLLAHKA

Key:
Assay in all cases: pull-down
[1] = molecular target: B3
[2] = molecular target: T1, His6-WDR91(392-747)
[3] = molecular target: GST-SNX27 (UniProt Q96L92 1-541)
[4] = molecular target: GST-VPS35 (UniProt Q96QK1 1-796)

Binder	binding result [1]	binding result [2]	binding result [3]	binding result [4]
B1	binds	binds	–	–
B2	binds	–	–	–
B3	–	–	binds	binds

From article PMC9531996 (The Journal of Cell Biology, 2022)
